Legend:
[1] = target: T1, rapamycin-mediated FRB/FKBP protein-protein interaction (Homo sapiens, UniProt P42345+P62942); assay: Protein complementation labeling (PCL) in vitro with split HT2; assay type: biochemical; details: with or without 1 μM rapamycin, 0.1 μM TMR ligand
T1 construct: made in house; host or cells: cell-free: RiboMax transcription followed by Wheat Germ Plus translation
Description: The rapamycin-mediated FRB/FKBP protein-protein interaction and a mutant DhaA were employed in a PCL. FRB and FKBP will only interact when rapamycin is present. Therefore, if PCL is successful, the reconstituted reporter is labeled only when the fusion proteins are incubated together in the presence of rapamycin.
Two pF9 (Kan) vectors were generated which contained either FRB or FKBP ORF plus the linker sequence (GlyGlyGlyGlySer)2 (SEQ ID NO:14 represents GlyGlyGlyGlySer) upstream of the SefI/PmeI sites. A mutant DhaA gene (HT2) at positions corresponding to those useful to prepare Renilla luciferase fragments for PCS (see Example 2 and FIG. 7) with FRB-N terminal and FKBP-C terminal fusions. HT2 N- and C-termini halves were amplified using PCR primers and cloned into the SefI/PmeI sites. PCL was performed in vitro by expressing each clone individually using RiboMax followed by Wheat Germ Plus reactions (HT2). Protein was expressed with or without FluoroTect™. FluoroTect™ labeling ensured that all proteins were expressed in approximately equal amounts (data not shown). Unlabeled proteins were then incubated alone or with the appropriated partner with or without 1 μM rapamycin. Ten μl of these products were then incubated with 0.1 μM of a TMR labeled ligand for the mutant dehalogenase, for 2 hours in the dark. […]

[2] = target: T1, rapamycin-mediated FRB/FKBP protein-protein interaction; assay: PCL in transiently transfected CHO cells; assay type: cell-based; details: +/−1 μM rapamycin, 1.0 μM HaloTag TMR ligand
Description: For transient transfections, CHO cells were plated in a 6 well plate and transfected in duplicate using TransIT®-CHO. The next day, cells were incubated +/−1 μM rapamycin for 2.5 hours followed by 1.0 μM HaloTag® TMR ligand for 1 hour. Cells were washed in PBS, trypsinized, pelleted and mechanically lysed in 200 ul PBS with protease inhibitor and RQDNase I. Normalized amounts of proteins were microwaved for 30 seconds on high and run on a denaturing NuPAGE® gel.

[3] = Thermostability of mutant DhaAs; assay type: physicochemical
Description: Moreover, V7>V6>V7F>V3>HT2 for thermostability. For example, under some conditions (30 minute exposure to 48° C.) purified V7F loses 50% of its activity, while V7 still maintains 80% activity. The thermostability discrepancy between the two is more dramatic when they V7 and V7F are expressed in E. coli and analyzed as lysates.

[4] = Fluorescence polarization (FP) labeling assay; assay type: binding
Text: Fluorescence polarization (FP) is ideal for the study of small fluorescent ligands binding to proteins. It is unique among methods used to analyze molecular binding because it gives direct nearly instantaneous measure of a substrate bound/free ratio. Therefore, an FP assay was developed as an alternative approach to fluorimage gel analysis of the purified DhaA mutants. […] To place this rate in perspective, approximately 42 and 420-fold more A7 and parental, i.e., DhaA.H272F, protein, respectively, was required in the reaction to obtain measurable rates. Under the labeling conditions used, it is evident that the H11YL mutant was also considerably faster than A7 and parental, DhaA.H272F proteins with the fluorescein-based substrate. However, it appears that labeling of H11YL with carboxyfluorescein-C10H21NO2—Cl is markedly slower than labeling with the corresponding carboxytetramethylrhodamine-C10H21NO2—Cl substrate. Four-fold more H11YL protein was used in the carboxyfluorescein-C10H21NO2—Cl reaction (150 nM) versus the carboxytetramethylrhodamine-C10H21NO2—Cl reaction (35 nM), yet the rate observed appeared to be qualitatively slower than the observed carboxytetramethylrhodamine-C10H21NO2—Cl rate.
Based on the sensitivity and truly homogenous nature of this assay, FP was used to characterize the labeling properties of the purified DhaA mutants with the fluorescently coupled substrates. The data from these studies was then used to calculate a second order rate constant for each DhaA mutant-substrate pair. […] However, in each case labeling was slower with the carboxyfluorescein-C10H21NO2—Cl substrate. All of the first generation DhaA mutants characterized by FP had rates that ranged from 7 to 3555-fold faster than the corresponding parental protein. By far, the biggest impact on labeling rate by a single amino acid substitution occurred with the three replacements at the 273 position (Y273L, Y273M, and Y273C) in the DhaA.H272F background. Nevertheless, in each of the first generation DhaA.H272F mutants tested, labeling with the carboxyfluorescein-C10H21NO2—Cl substrate always occurred at a slower rate (1.6 to 46-fold). […] The H11YL rate constant of 2.2×10^6 M^−1 sec^−1 was nearly identical to the rate constant calculated for a carboxytetramethylrhodamine-coupled biotin/streptavidin interaction. This value is consistent with an on-rate of 5×10^6 M^−1 sec^1 determined for a biotin-streptavidin interaction using surface plasmon resonance analysis (Qureshi et al., 2001). Several of the second generation mutants also had improved rates with the carboxyfluorescein-C10H21NO2—Cl substrate, however, as noted previously, these rates were always slower than with the carboxytetramethylrhodamine-C10H21NO2—Cl substrate. […]

[5] = Kinetic labeling studies, fluorimage gel analysis; assay type: binding; details: 10 ng protein, refined time-course, fluorimaged gel
Description: To facilitate comparative kinetic studies several improved DhaA mutants were selected for purification using a Glutathione Sepharose 4B resin. In general, production of DhaA.H272F and DhaA.D106C based fusions in E. coli was robust, although single amino acid changes may have negative consequences on the production of DhaA. As a result of this variability in protein production, the overall yield of the DhaA mutants also varied considerably (1-15 mg/mL). Preliminary kinetic labeling studies were performed using several DhaA.H272F derived mutants. Many, if not all, of the mutants chosen for analysis had faster labeling kinetics than the H272F parent. In fact, upon closer inspection of the time course, the labeling of several DhaA mutants including the first generation mutant YL and the two second generation mutants, A7YM and H11YL mutants appeared to be complete by 2 minutes. A more expanded time course analysis was performed on the DhaA.H272F A7 and the two second generation DhaA.H272F mutants A7YM and H11YL. […] The fluorescent bands on gel were quantitated and the relative rates of product formation determined. […] Under these labeling conditions a linear initial rate could be measured. Quantitation of the fluorimaged gel data allowed second order rate constants to be calculated. […]

T1 sequence (P42345 2012-2144 limits assumed): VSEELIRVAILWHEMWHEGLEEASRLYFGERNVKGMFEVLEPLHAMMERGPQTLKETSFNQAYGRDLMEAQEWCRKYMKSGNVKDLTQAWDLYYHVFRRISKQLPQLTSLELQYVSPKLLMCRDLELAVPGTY
T1 sequence (P62942 whole entry): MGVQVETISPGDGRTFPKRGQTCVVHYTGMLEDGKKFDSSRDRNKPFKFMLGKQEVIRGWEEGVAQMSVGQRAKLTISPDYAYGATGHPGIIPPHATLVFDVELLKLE

B1: H11YL: second generation DhaA.H272F mutant, H11 recombined with Y273L; SEQ ID NO:18 (protein)
chain: SEIGTGFPFDPHYVEVLGERMHYVDVGPRDGTPVLFLHGNPTSSYLWRNIIPHVAPSHRCIAPDLIGMGKSDKPDLDYFFDDHVRYLDAFIEALGLEEVVLVIHDWGSALGFHWAKRNPERVKGIACMEFIRPIPTWDEWPEFARETFQAFRTADVGRELIIDQNAFIEGALPMGVVRPLTEVEMDHYREPFLKPVDREPLWRFPNELPIAGEPANIVALVEAYMNWLHQSPVPKLLFWGTPGVLIPPAEAARLAESLPNCKTVDIGPGLFLLQEDNPDLIGSEIARWLPAL
TMR labeling [1]: labeled | TMR labeling in CHO cells [2]: labeled irrespective of rapamycin addition | thermostability ranking [3]: V7>V6>V7F>V3>HT2 | carboxyfluorescein-C10H21NO2—Cl labeling rate slower/lower than carboxytetramethylrhodamine-C10H21NO2—Cl labeling rate [4]: 100 fold | calculated second order rate constant ([4]; FP): 2.2e+06 M⁻¹ s⁻¹ | second order rate constant compared with the DhaA.H272F parent ([4]; FP): over four orders of magnitude higher | second order rate constant for labeling [5]: 500000 M⁻¹ s⁻¹

From US20100273186A1, “SPLIT MUTANT HYDROLASE FUSION REPORTER AND USES THEREOF” (Promega Corporation, priority 2007, published 2010)
